According to the Human Domainome abundance scans (Beltran et al. 2025):
± gives the uncertainty stated by the source.

B1: Zinc finger homeobox protein 3, residues 2147 to 2202; numbered along this chain, Q15911 (parent)
chain: RPRTRITDDQLRVLRQYFDINNSPSEEQIKEMADKSGLPQKVIKHWFRNTLFKERQ
B2: DNA topoisomerase 3-alpha, residues 812 to 851; numbered along this chain, Q13472 (parent)
chain: TCNCGQEAVLLTVRKEGPNRGRQFFKCNGGSCNFFLWADS

Variants of: B1
Assay: abundance fitness (aPCA) (normalised: wild type 0, dead -1); higher = more abundant; growth selection in yeast, the domain comes from the species named
Settings: Homo sapiens

Variant | abundance fitness
S36G | -0.449 ± 0.08
L11P | -0.962 ± 0.11
D8M | -0.096 ± 0.086
V13W | 0.003 ± 0.096
I29C | -0.279 ± 0.14
D34Q | -0.112 ± 0.12
I6N | -0.401 ± 0.14
L38Y | -1.05 ± 0.33
I43L | -0.443 ± 0.097
F52P | -0.059 ± 0.18
R12I | 0.046 ± 0.098
F18Q | -0.203 ± 0.095
Y17I | -0.175 ± 0.12
S36V | -0.031 ± 0.085
T7K | -0.336 ± 0.09
E54P | -0.367 ± 0.17
V13A | -0.22 ± 0.079
W46Q | -0.576 ± 0.14
K53V | -0.167 ± 0.087
A33H | 0.254 ± 0.4
F52N | 0.069 ± 0.16
R55P | -0.343 ± 0.13
N22A | 0.022 ± 0.072
R15V | -0.226 ± 0.077
N21H | -0.01 ± 0.13

Variant | abundance fitness
L14V | -0.49 ± 0.076
K44H | -0.131 ± 0.2
I20F | -0.037 ± 0.11
R5M | 0.138 ± 0.09
H45C | -0.194 ± 0.12
D19S | -0.015 ± 0.073
D19P | -0.336 ± 0.11
R48A | -0.042 ± 0.091
L11T | -0.026 ± 0.095
E26G | -0.192 ± 0.066
Q10G | -0.602 ± 0.065
R3P | -0.108 ± 0.14
N21S | -0.013 ± 0.084
R48E | 0.057 ± 0.12
R3V | 0.006 ± 0.075
V13P | -0.587 ± 0.068
T7C | -0.367 ± 0.11
F52W | -0.161 ± 0.1
H45M | 0.029 ± 0.1
P39Q | -0.167 ± 0.11
D34K | 0.02 ± 0.13
I43M | -0.706 ± 0.16
T7P | -0.086 ± 0.1
K30I | -0.133 ± 0.15
W46V | -0.177 ± 0.11

Variant | abundance fitness
V13Q | 0.043 ± 0.076
F52H | -0.189 ± 0.22
P39G | -0.016 ± 0.068
T4F | 0.125 ± 0.14
W46R | -0.812 ± 0.093
K35F | -0.336 ± 0.14
R1G | -0.247 ± 0.091
K41C | 0.126 ± 0.14
R3D | 0.215 ± 0.14
K53S | -0.056 ± 0.089
S23G | -0.268 ± 0.066
T7E | -0.133 ± 0.081
I6E | -0.408 ± 0.091
F47I | -0.265 ± 0.18
D8W | -0.277 ± 0.079
R15K | -0.074 ± 0.091
R1L | -0.303 ± 0.17
F18N | -0.451 ± 0.17
Q16N | -0.174 ± 0.29
D19Q | -0.207 ± 0.11
Q10F | -0.626 ± 0.14
E26F | -0.071 ± 0.13
L51T | -0.059 ± 0.096
R15S | -0.067 ± 0.068
K35N | -0.138 ± 0.14

Variant | abundance fitness
R12P | -0.477 ± 0.086
V13R | -0.243 ± 0.067
E26C | 0.024 ± 0.091
K41N | -0.053 ± 0.16
V42L | -0.103 ± 0.092
P24M | -0.5 ± 0.12
D9P | -0.074 ± 0.085
Q28W | -0.642 ± 0.086
D8I | -0.122 ± 0.12
I6H | -0.241 ± 0.14
S25Q | -0.223 ± 0.098
D8A | -0.022 ± 0.067
D9Y | -0.148 ± 0.11
Y17D | -0.184 ± 0.1
R1S | -0.399 ± 0.14
S23Y | -0.255 ± 0.2
N49Q | -0.075 ± 0.15
S36I | 0.078 ± 0.12
R48G | -0.118 ± 0.068
S23H | 0.055 ± 0.28
K35H | -0.536 ± 0.15
R1T | -0.271 ± 0.16
F52S | -0.029 ± 0.095
G37L | -0.278 ± 0.088
S25E | -0.111 ± 0.089

Variant | abundance fitness
H45I | -0.09 ± 0.13
I20E | -0.228 ± 0.085
M32E | -0.987 ± 0.13
R55Y | -0.195 ± 0.27
R48S | -0.121 ± 0.09
L14Y | -1.02 ± 0.17
N21Q | -0.105 ± 0.1
T50R | -0.068 ± 0.096
F18E | -0.555 ± 0.091
Q40N | 0.102 ± 0.31
W46M | -0.429 ± 0.15
W46N | -0.561 ± 0.19
F52A | 0.074 ± 0.083
E26L | -0.089 ± 0.073
Q56G | -0.419 ± 0.33
R5I | 0.148 ± 0.074
E27R | -0.046 ± 0.062
S23N | -0.14 ± 0.26
R55F | -0.146 ± 0.14
L51F | -0.214 ± 0.13
P39V | -0.119 ± 0.079
M32Y | -0.317 ± 0.15
F47A | -0.482 ± 0.094
K53C | -0.269 ± 0.14
R48M | -0.06 ± 0.11

Variant | abundance fitness
F18K | -0.039 ± 0.11
R48K | 0.107 ± 0.13
R3N | 0.016 ± 0.17
Y17R | -0.369 ± 0.067
N22W | -0.19 ± 0.083
I20M | 0.02 ± 0.1
I20N | 0.008 ± 0.14
Q56P | -0.261 ± 0.44
M32D | -0.466 ± 0.19
L51C | -0.088 ± 0.11
E54S | -0.128 ± 0.093
P24H | -0.566 ± 0.14
Q10M | -0.27 ± 0.1
R15E | -0.048 ± 0.082
E27D | 0.075 ± 0.1
R5G | -0.023 ± 0.067
P24D | -0.8 ± 0.11
I6R | -0.727 ± 0.086
D34H | 0.061 ± 0.19
L11K | 0.095 ± 0.099
F47N | -0.526 ± 0.24

Variants of: B2
Assay: as above
Settings: Homo sapiens

Variant | abundance fitness
T1Q | -0.24 ± 0.19
T1W | -0.858 ± 0.47
C2F | -0.827 ± 0.38
C2G | -0.601 ± 0.36
C2S | -0.593 ± 0.24
N3D | -0.006 ± 0.068
N3G | -0.739 ± 0.15
N3L | -0.32 ± 0.091
N3R | -0.539 ± 0.1
C4G | -1.3 ± 0.26
C4L | -1.24 ± 0.41
C4R | -0.907 ± 0.26
C4V | -1.09 ± 0.19
G5A | -0.437 ± 0.22
G5C | -0.484 ± 0.063
G5H | -0.419 ± 0.14
G5K | -0.263 ± 0.11
G5L | -0.666 ± 0.059
G5M | -0.267 ± 0.095
G5Q | -0.259 ± 0.073
G5R | -0.467 ± 0.11
